± gives the uncertainty stated by the source.
B1: Glucocorticoid receptor, residues 419 to 494; numbered along this chain, P04150 (parent)
chain: KLCLVCSDEASGCHYGVLTCGSCKVFFKRAVEGQHNYLCAGRNDCIIDKIRRKNCPACRYRKCLQAGMNLEARKTK

Variants of: B1
Assay: abundance fitness (aPCA) (normalised: wild type 0, dead -1); higher = more abundant; growth selection in yeast, the domain comes from the species named
Details: Homo sapiens

Which abundance fitness does the source give for KLCLVCSDEASGCHYGVLTCGSCKVFFKRAVEGQHNYLCAGRNDCIIDKIRKKNCPACRYRKCLQAGMNLEARKTK [R52K] here?
Its abundance fitness is -0.03 ± 0.047.

For KLCLVCSDEASGCHYGVETCGSCKVFFKRAVEGQHNYLCAGRNDCIIDKIRRKNCPACRYRKCLQAGMNLEARKTK [L18E], which abundance fitness is on record?
Its abundance fitness is -0.045 ± 0.052.

Which abundance fitness does the source give for KLCLVCSDEASGCHYGVLTCGSCKVFFKRAVEGQHNYLCAGRNKCIIDKIRRKNCPACRYRKCLQAGMNLEARKTK [D44K] here?
Its abundance fitness is -0.062 ± 0.058.

For KLCLVCSDEASGCHYGVLTCGSCKVFFKRAVEGQHNYLCAGRNDCIIDVIRRKNCPACRYRKCLQAGMNLEARKTK [K49V], which abundance fitness is on record?
Its abundance fitness is 0.024 ± 0.037.

For KLCLVCSDEASWCHYGVLTCGSCKVFFKRAVEGQHNYLCAGRNDCIIDKIRRKNCPACRYRKCLQAGMNLEARKTK [G12W], which abundance fitness is on record?
The abundance fitness was -0.153 ± 0.053.

For KLCLVCSDEASGCHYGVLTCGSCKVFFKGAVEGQHNYLCAGRNDCIIDKIRRKNCPACRYRKCLQAGMNLEARKTK [R29G], which abundance fitness is on record?
Its abundance fitness is -0.057 ± 0.034.

With KLCLVCSDEASGCHYGVLTCGSCKVFFKRAVEGQHNYLCAGRNNCIIDKIRRKNCPACRYRKCLQAGMNLEARKTK [D44N] as the variant, how does the abundance fitness read?
The abundance fitness was -0.073 ± 0.1.

With KLCLVCSDEASGCHYGVLTCGSCKVFFQRAVEGQHNYLCAGRNDCIIDKIRRKNCPACRYRKCLQAGMNLEARKTK [K28Q] as the variant, how does the abundance fitness read?
Its abundance fitness is 0.014 ± 0.056.

For KLCLVCSDEASGCHYGVLTFGSCKVFFKRAVEGQHNYLCAGRNDCIIDKIRRKNCPACRYRKCLQAGMNLEARKTK [C20F], which abundance fitness is on record?
The abundance fitness was -0.717 ± 0.32.

For KLCLVCSDEASGCHYGVLTCGSCKVFFKRAVEGQHNYLCAGRNDCIIDKIRRKNCPACRYRKCLQAGMNLEIRKTK [A72I], which abundance fitness is on record?
Its abundance fitness is 0.002 ± 0.062.

For KLCLVCSDEASGCHYGVLTCGSCKVFFKRAVEGQHNYLCWGRNDCIIDKIRRKNCPACRYRKCLQAGMNLEARKTK [A40W], which abundance fitness is on record?
Its abundance fitness is -0.079 ± 0.041.

Which abundance fitness does the source give for KLCLVCSDEASGCHYGVLTCGSCKVFFKRAVEGQHNYLCAGRNDCIIDKIRRKNCPADRYRKCLQAGMNLEARKTK [C58D] here?
Its abundance fitness is -0.872 ± 0.42.

For KLCLVCSDEASGCHYGVLTCGSCKVFFKRAVEGQHNYLCAGRNDCIIDKIRRKNTPACRYRKCLQAGMNLEARKTK [C55T], which abundance fitness is on record?
Its abundance fitness is -0.849 ± 0.11.

With KLCLVCSDEASGCHYGVLTCGSCKVFFKRAVEGQHNYLMAGRNDCIIDKIRRKNCPACRYRKCLQAGMNLEARKTK [C39M] as the variant, how does the abundance fitness read?
Its abundance fitness is -0.998 ± 0.18.

With KLCLVCSDEASGCHYGVLTCGSCKVFFKRAVEGQHNYLCAGRNDCIIDKIRRKNCPACRYRKCLQAGMNLEAKKTK [R73K] as the variant, how does the abundance fitness read?
Its abundance fitness is 0.004 ± 0.052.

With KLCLVCPDEASGCHYGVLTCGSCKVFFKRAVEGQHNYLCAGRNDCIIDKIRRKNCPACRYRKCLQAGMNLEARKTK [S7P] as the variant, how does the abundance fitness read?
The abundance fitness was -0.757 ± 0.11.

Which abundance fitness does the source give for KLCLVCSDEASGCHYGVLTCGSCKVFFKRAVEGQHNYLCAGVNDCIIDKIRRKNCPACRYRKCLQAGMNLEARKTK [R42V] here?
Its abundance fitness is 0.033 ± 0.036.

With KLCLVCSDEASGCHYGVLTCGSCKVFFKRAVEGQHNYLCAGRNDRIIDKIRRKNCPACRYRKCLQAGMNLEARKTK [C45R] as the variant, how does the abundance fitness read?
The abundance fitness was -0.778 ± 0.058.

With KLCLVCSDEASGCHYGVLTCGSCKVFFKRAVEGLHNYLCAGRNDCIIDKIRRKNCPACRYRKCLQAGMNLEARKTK [Q34L] as the variant, how does the abundance fitness read?
The abundance fitness was -0.099 ± 0.04.

With KLCLVCSDEASGCHYGVLTCGSCKVFFKRAVEGQHNYLCAGRNDCIIDKIRRKNCPACRYRKCLQAGMNLEARCTK [K74C] as the variant, how does the abundance fitness read?
Its abundance fitness is -0.032 ± 0.06.

With KLQLVCSDEASGCHYGVLTCGSCKVFFKRAVEGQHNYLCAGRNDCIIDKIRRKNCPACRYRKCLQAGMNLEARKTK [C3Q] as the variant, how does the abundance fitness read?
Its abundance fitness is -0.686 ± 0.16.

Which abundance fitness does the source give for KLCLVCSDEASGCHYGVLTCGSCKVKFKRAVEGQHNYLCAGRNDCIIDKIRRKNCPACRYRKCLQAGMNLEARKTK [F26K] here?
Its abundance fitness is -0.929 ± 0.14.

Which abundance fitness does the source give for KLCLVCSDEASGCPYGVLTCGSCKVFFKRAVEGQHNYLCAGRNDCIIDKIRRKNCPACRYRKCLQAGMNLEARKTK [H14P] here?
The abundance fitness was -0.24 ± 0.056.

Which abundance fitness does the source give for KLCLVCSDEASGCHYGVLTCGSCKVPFKRAVEGQHNYLCAGRNDCIIDKIRRKNCPACRYRKCLQAGMNLEARKTK [F26P] here?
Its abundance fitness is -0.872 ± 0.15.

With KLCLVCSDEASGCHYGVLTCGSCKVFFKRAVHGQHNYLCAGRNDCIIDKIRRKNCPACRYRKCLQAGMNLEARKTK [E32H] as the variant, how does the abundance fitness read?
Its abundance fitness is -0.058 ± 0.073.

Which abundance fitness does the source give for KLCLVCSDEASGCHYKVLTCGSCKVFFKRAVEGQHNYLCAGRNDCIIDKIRRKNCPACRYRKCLQAGMNLEARKTK [G16K] here?
The abundance fitness was -0.295 ± 0.055.

For KLCLVCSDEASGCHYGVLTCGSCKVFFKRAVEGQHCYLCAGRNDCIIDKIRRKNCPACRYRKCLQAGMNLEARKTK [N36C], which abundance fitness is on record?
Its abundance fitness is -0.133 ± 0.066.

For KLCLVCSDEASGCHYGVLTCGSCKVFFKRAVEGQHNYLCAGRNDCIIDKIRRKNCPACRYRKCLQAGMNLEPRKTK [A72P], which abundance fitness is on record?
Its abundance fitness is -0.077 ± 0.055.

For KLCLVCSDEASGCHYGVLTCGSCKVFFKRAVEGQHNYLCAGRNDCIIDKIRRKNCPACRYRKCLQAGVNLEARKTK [M68V], which abundance fitness is on record?
The abundance fitness was -0.472 ± 0.055.

For KLCLVCSDEASGCHYGVLTCGSCKVFFKRAVEGQHNYLCAGRNDCIIDKIRRKLCPACRYRKCLQAGMNLEARKTK [N54L], which abundance fitness is on record?
Its abundance fitness is -0.021 ± 0.034.

Which abundance fitness does the source give for KLCLVCSDEASGCHYGVLTCGSCKVQFKRAVEGQHNYLCAGRNDCIIDKIRRKNCPACRYRKCLQAGMNLEARKTK [F26Q] here?
Its abundance fitness is -0.858 ± 0.17.

Which abundance fitness does the source give for KLCLVCSDEASGCHYGVLTCGSCKVFFKRAVEGQHNYLCAGRNDCIIDKIRRKNCPACRYRKCLQAGMNLEARKEK [T75E] here?
Its abundance fitness is 0.032 ± 0.063.

For KFCLVCSDEASGCHYGVLTCGSCKVFFKRAVEGQHNYLCAGRNDCIIDKIRRKNCPACRYRKCLQAGMNLEARKTK [L2F], which abundance fitness is on record?
The abundance fitness was 0.069 ± 0.058.

For KLCLVCSDEASGCHYGVLTCGSCKVFFKRAVEGQHNYLCAGRNDCIIDKIRRKNCPACRYRKCLQEGMNLEARKTK [A66E], which abundance fitness is on record?
The abundance fitness was -0.036 ± 0.048.

Which abundance fitness does the source give for KLCLVCSDEASGCHYGVLTCGSCKCFFKRAVEGQHNYLCAGRNDCIIDKIRRKNCPACRYRKCLQAGMNLEARKTK [V25C] here?
Its abundance fitness is 0.043 ± 0.063.

For KLCLVCSDEASGCHYGVLTCGSCKVFFKRAVEGQHNYLCAGRSDCIIDKIRRKNCPACRYRKCLQAGMNLEARKTK [N43S], which abundance fitness is on record?
Its abundance fitness is -0.044 ± 0.036.
